Values of other authors, collected in paper PMC4346141.

Assays:
IL12Rβ1 (Homo sapiens) = IL12Rβ1 (Homo sapiens) (UniProt P42701)
[1] = molecular target: IL12Rβ1 monomer (Homo sapiens) (UniProt P42701)
IL12Rβ2 (Homo sapiens) = IL12Rβ2 (Homo sapiens) (UniProt Q99665)
[2] = molecular target: IL12Rβ1 clone 3 (Mus musculus) (UniProt Q60837)
[3] = molecular target: IL12Rβ1 clone 2 (Mus musculus) (UniProt Q60837)
IL12Rβ1 clone 2 (Mus musculus), sequence (Q60837 20-565): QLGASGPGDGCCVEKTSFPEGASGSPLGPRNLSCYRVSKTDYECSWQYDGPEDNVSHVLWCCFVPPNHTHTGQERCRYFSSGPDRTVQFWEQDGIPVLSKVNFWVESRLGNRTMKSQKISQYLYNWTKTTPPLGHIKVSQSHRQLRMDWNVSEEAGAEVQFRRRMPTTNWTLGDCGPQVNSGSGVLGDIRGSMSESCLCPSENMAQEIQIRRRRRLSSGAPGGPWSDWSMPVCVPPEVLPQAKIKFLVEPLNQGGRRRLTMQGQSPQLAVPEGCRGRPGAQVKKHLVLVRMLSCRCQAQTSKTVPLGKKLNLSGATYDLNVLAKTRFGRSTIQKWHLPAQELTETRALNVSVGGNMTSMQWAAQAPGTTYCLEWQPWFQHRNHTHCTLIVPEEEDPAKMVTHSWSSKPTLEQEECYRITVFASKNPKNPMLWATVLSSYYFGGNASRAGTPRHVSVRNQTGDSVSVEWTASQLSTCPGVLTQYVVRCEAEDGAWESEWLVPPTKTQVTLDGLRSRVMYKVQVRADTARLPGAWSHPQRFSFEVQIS

IL12, sequence (P29459 23-219): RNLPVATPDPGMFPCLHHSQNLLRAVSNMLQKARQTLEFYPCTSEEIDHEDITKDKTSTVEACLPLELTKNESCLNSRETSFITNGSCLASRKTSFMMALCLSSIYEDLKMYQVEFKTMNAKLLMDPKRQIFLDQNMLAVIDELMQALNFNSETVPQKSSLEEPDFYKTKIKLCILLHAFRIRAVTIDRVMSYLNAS
IL12, sequence (P29460 23-328, further chain): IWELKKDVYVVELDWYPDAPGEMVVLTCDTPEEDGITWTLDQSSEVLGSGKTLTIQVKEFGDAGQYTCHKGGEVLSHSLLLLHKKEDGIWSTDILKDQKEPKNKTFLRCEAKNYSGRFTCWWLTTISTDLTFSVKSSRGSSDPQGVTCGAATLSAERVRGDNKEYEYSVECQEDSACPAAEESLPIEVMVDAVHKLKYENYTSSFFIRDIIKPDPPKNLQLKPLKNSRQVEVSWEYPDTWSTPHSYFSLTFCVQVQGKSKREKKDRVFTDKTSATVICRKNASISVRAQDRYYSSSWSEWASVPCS
IL12Rβ1 clone 3 (Mus musculus), sequence (Q60837 20-565): as the sequence (Q60837 20-565) above
IL12Rβ2 (Homo sapiens), sequence (Q99665 24-622): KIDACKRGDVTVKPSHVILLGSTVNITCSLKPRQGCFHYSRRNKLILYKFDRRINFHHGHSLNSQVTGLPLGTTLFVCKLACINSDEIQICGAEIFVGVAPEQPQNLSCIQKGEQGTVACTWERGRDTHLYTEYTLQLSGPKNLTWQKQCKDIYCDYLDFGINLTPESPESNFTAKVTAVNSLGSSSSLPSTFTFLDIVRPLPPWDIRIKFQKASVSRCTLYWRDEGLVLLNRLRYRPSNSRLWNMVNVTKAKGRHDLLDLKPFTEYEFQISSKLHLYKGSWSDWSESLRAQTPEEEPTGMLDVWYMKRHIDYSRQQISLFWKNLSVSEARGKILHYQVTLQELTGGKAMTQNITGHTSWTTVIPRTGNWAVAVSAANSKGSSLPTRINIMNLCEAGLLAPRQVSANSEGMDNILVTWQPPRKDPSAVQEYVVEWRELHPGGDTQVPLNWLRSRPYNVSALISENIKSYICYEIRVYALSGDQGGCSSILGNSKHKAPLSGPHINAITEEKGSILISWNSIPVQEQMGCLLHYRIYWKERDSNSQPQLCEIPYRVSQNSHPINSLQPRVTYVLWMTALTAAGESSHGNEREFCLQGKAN

| Kd (IL12Rβ1 (Homo sapiens)) | Kd [1] | Kd (IL12Rβ2 (Homo sapiens)) | Kd [2] | Kd [3] | Substance |
| --- | --- | --- | --- | --- | --- |
| 3 nM | > 50 nM | 5 nM |  |  | IL12 (from UniProt P29459) |
|  |  |  | 1.3 nM | 0.899 nM | IL12 (from UniProt P43431) |
